The text below walks through data of US20220242961A1 (ABL BIO, published 2022).

As usually defined, the Kd is the equilibrium constant for the complex coming apart. A low value points to higher affinity. What is called koff is the rate constant with which the complex falls apart. Read a high koff as fast dissociation. The kon is the rate constant with which the complex forms. A high value points to faster complex formation. Usually EC50 (read off the curve) stands for the concentration giving half of the maximal effect. Lower therefore signals greater potency.

The target in assay [1] is T1, 4-1BB (antigen of the Octet kinetics) (human, UniProt Q07011 24-186, limits assumed).
T1 construct: the whole entry is named
The experiment in a line: Octet Red 96 kinetics. An excerpt: To explore the binding kinetics of the humanized antibody, this example performed the affinity ranking by using Octet Red 96.

In assay [2] the target is T2, human 4-1 BB-Fc protein (human, UniProt Q07011 24-186).
T2 construct: also called extracellular domain 4-1 BB antigen; not shown: Fc part
Kind of assay: ELISA on plate-coated human 4-1BB-Fc (0.1 ug/ml), goat anti-human IgG-HRP, TMB. As for the experimental part:
To evaluate the antigen binding activity, the antibody candidates were subjected to ELISA test. Briefly, microtiter plates were coated with human 4-1 BB-Fc protein at 0.1 μg/ml in PBS, 100 μl/well at 4° C. overnight, then blocked with 100 μl/well of 5% BSA. Serial dilutions of antibodies obtained in Example 1.1 were added to each well and incubated for 1-2 hours at RT. The plates were washed with PBS/Tween and then incubate with goat-anti-human IgG antibody conjugated with Horse Radish Peroxidase (HRP) for 1 hour at RT. After washing, the plates were developed with TMB substrate and analyzed by spectrophotometer at OD 450-630 nm.
A general note: In an ELISA, binding on a coated surface is turned into a signal by an enzyme label.

B1: 41B03 (antibody, human IgG4 S228P, V domains shown)
VH: EVQLLESGGGLVQPGGSLRLSCAASGFTFSSNVMNWVRQAPGKGLEWVSEISHSGSTNYNPSLKSRFTISRDNSKNTLYLQMNSLRAEDTAVYYCAVGAGNLGYWGQGTLVTVSS
VL: EIVLTQSPGTLSLSPGERATLSCQASQDISNYLNWYQQKPGQAPRLLIYGASSRATGIPDRFSGSGSGTDFTLTISRLEPEDFAVYYCQQYNSYPITFGQGTKLEIKR
Turning to B1, in assay [1], the Kd stood at 0.79 nM, the koff was 0.000597 s⁻¹ and the kon is 755000 M⁻¹ s⁻¹.

B2: 41B02 (antibody, human IgG4 S228P, lambda, V domains shown)
VH: EVQLLESGGGLVQPGGSLRLSCAASGFTFSGYDMSWVRQAPGKGLEWVSVIYPDDGNTYYADSVKGRFTISRDNSKNTLYLQMNSLRAEDAAVYYCAKHGGQKPTTKSSSAYGMDGWGQGTLVTVSS
VL: QSVLTQPPSASGTPGRRVTISCSGSSSNIGNNYVTWYQQLPGTAPKLLIYADSHRPSGVPDRFSGSKSGTSASLAISGLRSEDEADYYCATWDYSLSGYVFGGGTKLTVLG
notes: also called anti-4-1BB antibody 41B02; 41B02 clone
As for B2, the “EC50 (read off the curve)” value in assay [2] was roughly 0.03 nM.

B3: 41B02.01 (antibody, human IgG4 S228P, lambda, V domains shown)
VH: EVQLLESGGGLVQPGGSLRLSCAASGFTFSGYDMSWVRQAPGKGLEWVSVIYPDDGNTYYADSVKGRFTISRDNSKNTLYLQMNSLRAEDTAVYYCAKHGGQKPTTKSSSAYGMDGWGQGTLVTVSS
VL: QSVLTQPPSASGTPGQRVTISCSGSSSNIGNNYVTWYQQLPGTAPKLLIYADSHRPSGVPDRFSGSKSGTSASLAISGLRSEDEADYYCATWDYSLSGYVFGGGTKLTVLG
B3: in assay [2], the “EC50 (read off the curve)” value was roughly 0.03 nM.
